Laboratory results from US10752675B2, “Compounds for treating the remyelination blockade in diseases associated with the expression of HERV-W envelope protein” (GENEURO S.A., priority 2012, dated 2020).
Entries after “also recorded” stand apart in the source; their conditions may differ.

System: human OPC
Test: Expression of CNPase in human OPC in primary culture stimulated by MSRV-Env, with or without GNbAC1 (immunocytochemistry)
Type: cell-based
Settings: for CNPase positive cells, normalized to control condition (buffer = 100%): pooled data
Experimental: Full length recombinant MSRV-Env was produced and purified by PX′Therapeutics (548 aa; 61.44 KDa) (batch 110719-1). The initial concentration was 0.6 mg/ml (9.76 μM). MSRV-Env Buffer (20 mM Trizma-HCl, pH 7.5, 150 mM NaCl, 1.5% SDS, 10 mM DTT) was provided by PX′Therapeutics. This solution was used as a negative control. GNbAC1 (Batch T96/bAC1/B1; GMP production) was produced and purified by Polymun Scientific, Vienna, Austria. The initial concentration was 10 mg/ml (68.03 μM).
Human OPC were stimulated with the different treatments either by coating solutions on the cell culture plate surface before cells seeding or by adding them in the cell culture medium after cells seeding. In any case, labtek 8-wells chamber slides (Nunc) were previously coated with poly-L-lysine (Sigma-Aldrich) overnight at 37° C.
The different treatments were diluted in PBS under a sterile laminar flow hood (Fischer Bioblock, France) and the Labtek 8 wells chambers slides (Nunc; 250 μl per well) were coated as follows: • MSRV-Env (1 μg/ml) coated for 2 hours at 37° C. • MSRV-Env Buffer (same dilution than MSRV-Env) coated for 2 hours at 37° C. • MSRV-Env+GNbAC1 A1: MSRV-Env (1 μg/ml) and GNbAC1 (7.35 μg/ml=50 nM) mixture coated for 2 hours at 37° C. • MSRV-Env+GNbAC1 A2: MSRV-Env (1 μg/ml) and GNbAC1 (29.4 μg/ml=200 nM) mixture coated for 2 hours at 37° C. • MSRV-Env+GNbAC1 B1: MSRV-Env (1 μg/ml) coated for 2 hours at 37° C., washed with PBS and subsequently coated with GNbAC1 (7.35 μg/ml=50 nM) for 1 hour at 37° C. • MSRV-Env+GNbAC1 B2: MSRV-Env (1 μg/ml) coated for 2 hours at 37° C., washed with PBS and subsequently coated with GNbAC1 (29.4 μg/ml=200 nM) for 1 hour at 37° C. • GNbAC1 A1 alone: GNbAC1 (7.35 μg/ml=50 nM) coated for 2 hours at 37° C. • GNbAC1 A2 alone: GNbAC1 (29.4 μg/ml=200 nM) coated for 2 hours at 37° C. • GNbAC1 B1 alone: PBS for 2 hours at 37° C., then coated with GNbAC1 (7.35 μg/ml=50 nM) for 1 hour at 37° C. • GNbAC1 B2 alone: PBS for 2 hours at 37° C., then coated with GNbAC1 (29.4 μg/ml=200 nM) for 1 hour at 37° C. • BSA (1 μg/ml) coated for 2 hours at 37° C. • BSA+GNbAC1 A1: BSA (1 μg/ml) and GNbAC1 (7.35 μg/ml=50 nM) mixture coated for 2 hours at 37° C. • BSA+GNbAC1 A2: BSA (1 μg/ml) and GNbAC1 (29.4 μg/ml=200 nM) mixture coated for 2 hours at 37° C. • BSA+GNbAC1 B1: BSA (1 μg/ml) coated for 2 hours at 37° C., washed with PBS and subsequently coated with GNbAC1 (7.35 μg/ml=50 nM) for 1 hour at 37° C. • BSA+GNbAC1 B2: BSA (1 μg/ml) coated for 2 hours at 37° C., washed with PBS and subsequently coated with GNbAC1 (29.4 μg/ml=200 nM) for 1 hour at 37° C. Human Oligodendrocyte Precursor Cells Culture
The vial containing the human OPC was placed in a 37° C. water bath and gently agitated by rotation until the content was completely thawed. The cells were gently resuspended with a 1 ml Gilson pipette. Then, they were diluted in complete OPCM, and seeded into the 8-wells labtek culture vessels (7000 cells/cm^2=10000 cells per well) previously coated with poly-L-lysine (0.01%, Sigma) and with (or without) the treatments described above (see 3.2.1.1) under a sterile laminar flow hood (Fischer Bioblock, France). The cultures were incubated at 37° C.; 5% CO2 until subsequent immunocytochemistry experiments. The growth medium was changed the next day to remove the residual DMSO and unattached cells in the cultures treated for 72 hours.
After 3 hours of pre-cultivation (see 3.2.1.2) of the human OPC in the 8-well labtek culture vessels, the cells were incubated at 37° C. for 24 hours or 72 hours in 8-wells labteks (250 μl/well) with the addition of the following solutions: • MSRV-Env Buffer, used as a negative control, added in complete cell culture medium • MSRV-Env added at 3 nM (0.184 μg/ml) in complete cell culture medium • MSRV-Env (3 nM)+GNbAC1 (200 nM; 29.4 μg/ml) mixture added in complete cell culture medium • GNbAC1 (200 nM) alone added in complete cell culture medium Expression of TLR4 and Myelination Markers in OPC In Vitro […]

B1: GNbAC1: recombinant humanized anti-Env IgG4 monoclonal antibody comprising the CDRs of SEQ ID No. 1 to 6 (antibody, chains of the INN, looked up, V domains shown)
VH: QVQLVQSGAEVKKPGSSVKVSCKASGYTFTDYEMHWVRQAPGQGLEWIGAVAPETGGTAYNQKFKGRATITADKSTSTAYMELSSLRSEDTAVYYCTSTVVPFAYWGQGTLVTVSS
VL: QIQLTQSPSSLSASVGDRVTITCSASSSVSYMYWYQQKPGKAPKAWIYRTSNLASGVPSRFSGSGSGTDYTLTISSLQPEDFATYYCQQYQSLPLTFGGGTKVEIK
- effect on percentage of CNPase positive OPC without MSRV-Env (GNbAC1 50 nM or 200 nM coated alone or with BSA 1 μg/ml, 24 hours): no effect
- effect on the decrease of CNPase positive cells induced by coated MSRV-Env (GNbAC1 50 nM or 200 nM, protocols GNbAC1-A and GNbAC1-B, 24 hours): significantly inhibits; also recorded: fully inhibits MSRV-Env effect
- percentage of CNPase positive cells (GNbAC1 200 nM alone in culture medium, 24 hours): 74±2%
- effect on CNPase expression of GNbAC1 alone in culture medium (GNbAC1 200 nM alone, 24 hours): no effect; also recorded: does not show any effect alone
- effect on the inhibition of CNPase expression induced by coated MSRV-Env (GNbAC1 200 nM, both protocols, 24 hours, OPC ICC 03): completely reverses; also recorded: fully inhibits MSRV-Env effect
- percentage of CNPase positive cells (GNbAC1-A 50 nM (mixture with MSRV-Env 1 μg/ml coated), 24 hours, OPC ICC 02): 69±4%
- percentage of CNPase positive cells (GNbAC1-A 200 nM (mixture with MSRV-Env 1 μg/ml coated), 24 hours, OPC ICC 02): 80±2%
- CNPase positive cells, normalized to control condition (buffer = 100%) (GNbAC1-A 200 nM with coated MSRV-Env): 102±1%
- percentage of CNPase positive cells (GNbAC1-A 200 nM, coated MSRV-Env 1 μg/ml, 24 hours, OPC ICC 03): 90±2%
- percentage of CNPase positive cells (GNbAC1-B 50 nM (coated after MSRV-Env 1 μg/ml), 24 hours, OPC ICC 02): 96±3%
- percentage of CNPase positive cells (GNbAC1-B 200 nM (coated after MSRV-Env 1 μg/ml), 24 hours, OPC ICC 02): 76±4%
- CNPase positive cells, normalized to control condition (buffer = 100%) (GNbAC1-B 200 nM with coated MSRV-Env): 101±1%
- percentage of CNPase positive cells (GNbAC1-B 200 nM, coated MSRV-Env 1 μg/ml, 24 hours, OPC ICC 03): 91±4%
- percentage of CNPase positive cells (MSRV-Env 3 nM + GNbAC1 200 nM in culture medium, 24 hours): 76±2%
- effect on the decrease of CNPase expression induced by MSRV-Env in culture medium (MSRV-Env 3 nM, GNbAC1 200 nM, 24 hours): fully antagonizes; also recorded: inhibits completely this effect
